Numbered stars: 1 amine (or outer) side, 2 acyl side, 3 side chain; on linkers, the order of the positions; unused ones are H or OH. Bridge positions count the residues as written; N and C are the ends. Side chains are listed from the residue outwards. Ends that are not written are not given here. * marks the point of attachment. C20 diacid = O=C(O)CCCCCCCCCCCCCCCCCCC(=O)*; γGlu = O=C(O)[C@H](CCC(=O)[*:2])N[*:1]
T1: human amylin receptor (amylin 3(a) receptor: human calcitonin receptor plus RAMP-3) (human, UniProt P30988 25-474; O60896 24-148, limits assumed)
T1 sequence (looked up) 1: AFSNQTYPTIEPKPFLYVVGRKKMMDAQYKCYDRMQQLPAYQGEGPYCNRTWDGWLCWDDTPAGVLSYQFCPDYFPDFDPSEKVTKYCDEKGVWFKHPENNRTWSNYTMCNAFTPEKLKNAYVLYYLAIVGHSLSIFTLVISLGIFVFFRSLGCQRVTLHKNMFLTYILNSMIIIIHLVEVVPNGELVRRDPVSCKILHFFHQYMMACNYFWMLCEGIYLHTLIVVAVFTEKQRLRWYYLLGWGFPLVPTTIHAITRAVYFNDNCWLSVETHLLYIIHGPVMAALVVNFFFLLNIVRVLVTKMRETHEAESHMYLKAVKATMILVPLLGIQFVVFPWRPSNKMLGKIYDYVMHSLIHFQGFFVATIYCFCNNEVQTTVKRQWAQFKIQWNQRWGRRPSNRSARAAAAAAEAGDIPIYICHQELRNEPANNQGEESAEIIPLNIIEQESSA
T1 sequence (looked up) 2: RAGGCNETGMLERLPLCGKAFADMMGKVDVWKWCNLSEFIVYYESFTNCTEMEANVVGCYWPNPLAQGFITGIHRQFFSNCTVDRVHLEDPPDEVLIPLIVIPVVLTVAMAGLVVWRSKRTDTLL

T2: human calcitonin receptor (human, UniProt P30988 25-474)
T2 sequence (looked up): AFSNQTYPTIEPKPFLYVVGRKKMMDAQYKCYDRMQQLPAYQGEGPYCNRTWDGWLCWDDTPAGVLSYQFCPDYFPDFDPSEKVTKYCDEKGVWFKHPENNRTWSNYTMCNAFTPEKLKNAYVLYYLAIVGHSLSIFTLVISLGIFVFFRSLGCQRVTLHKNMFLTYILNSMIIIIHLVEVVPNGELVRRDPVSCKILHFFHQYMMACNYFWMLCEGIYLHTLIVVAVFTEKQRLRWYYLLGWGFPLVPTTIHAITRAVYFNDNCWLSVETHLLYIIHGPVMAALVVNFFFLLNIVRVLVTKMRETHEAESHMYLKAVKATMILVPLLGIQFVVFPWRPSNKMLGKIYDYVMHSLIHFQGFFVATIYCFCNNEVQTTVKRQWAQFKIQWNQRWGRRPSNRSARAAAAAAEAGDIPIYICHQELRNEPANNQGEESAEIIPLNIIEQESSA


Tests used:
[1] = target: T1, human amylin receptor (amylin 3(a) …); assay: cell-based or functional assay
[2] = target: T2, human calcitonin receptor; assay: cell-based or functional assay
[3] = target: T1, human amylin receptor (amylin 3(a) …); assay: SPA competition binding, membranes of Amylin 3(a)/CRE-luc BHK cells, displacement of 125I-rat amylin (Assay V)
Summary of the method: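 Membranes from BHK Amylin 3(a)/CRE-luc cells (35 ng/μL final) were mixed with SPA beads and test compounds in 50 mM Hepes pH 7.4 with 1 mM CaCl2, 5 mM MgCl₂, 0.1% OA and 0.02% Tween20. Incubation ran 120 min at 25° C with shaking; IC₅₀ came from one-site competition fitting.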

Row | hAmylin-R funct. EC50 [1] [nM] | Ratio hCT/hAmylin funct. (hCTR EC50 against hAmylin-R EC50) [2] | hCTR funct. EC50 [2] [nM] | IC50 [3] [nM] | Binder
1 | 0.213 | 2.2 | 0.47 | 0.264 | K([γGlu-γGlu-C20 diacid])CNTATCATQRLAEFLRHSSPNFGAIPSSTNVGSNTP-NH2 (disulfide 2-7; N-terminus assumed; SMILES CC[C@H](C)[C@H](NC(=O)[C@H](C)NC(=O)CNC(=O)[C@H](Cc1ccccc1)NC(=O)[C@H](CC(N)=O)NC(=O)[C@@H]1CCCN1C(=O)[C@H](CO)NC(=O)[C@H](CO)NC(=O)[C@H](Cc1c[nH]cn1)NC(=O)[C@H](CCCNC(=N)N)NC(=O)[C@H](CC(C)C)NC(=O)[C@H](Cc1ccccc1)NC(=O)[C@H](CCC(=O)O)NC(=O)[C@H](C)NC(=O)[C@H](CC(C)C)NC(=O)[C@H](CCCNC(=N)N)NC(=O)[C@H](CCC(N)=O)NC(=O)[C@@H](NC(=O)[C@H](C)NC(=O)[C@@H]1CSSC[C@H](NC(=O)[C@@H](N)CCCCNC(=O)CC[C@H](NC(=O)CC[C@H](NC(=O)CCCCCCCCCCCCCCCCCCC(=O)O)C(=O)O)C(=O)O)C(=O)N[C@@H](CC(N)=O)C(=O)N[C@@H]([C@@H](C)O)C(=O)N[C@@H](C)C(=O)N[C@@H]([C@@H](C)O)C(=O)N1)[C@@H](C)O)C(=O)N1CCC[C@H]1C(=O)N[C@@H](CO)C(=O)N[C@@H](CO)C(=O)N[C@H](C(=O)N[C@@H](CC(N)=O)C(=O)N[C@H](C(=O)NCC(=O)N[C@@H](CO)C(=O)N[C@@H](CC(N)=O)C(=O)N[C@H](C(=O)N1CCC[C@H]1C(N)=O)[C@@H](C)O)C(C)C)[C@@H](C)O, also called compound 13)
2 | 0.101 | 1.8 | 0.185 | 0.142 | K([γGlu-C20 diacid])CNTATCATQRLAEFLRHSSPNFGAIPSSTNVGSNTP-NH2 (disulfide 2-7; N-terminus assumed; SMILES CC[C@H](C)[C@H](NC(=O)[C@H](C)NC(=O)CNC(=O)[C@H](Cc1ccccc1)NC(=O)[C@H](CC(N)=O)NC(=O)[C@@H]1CCCN1C(=O)[C@H](CO)NC(=O)[C@H](CO)NC(=O)[C@H](Cc1c[nH]cn1)NC(=O)[C@H](CCCNC(=N)N)NC(=O)[C@H](CC(C)C)NC(=O)[C@H](Cc1ccccc1)NC(=O)[C@H](CCC(=O)O)NC(=O)[C@H](C)NC(=O)[C@H](CC(C)C)NC(=O)[C@H](CCCNC(=N)N)NC(=O)[C@H](CCC(N)=O)NC(=O)[C@@H](NC(=O)[C@H](C)NC(=O)[C@@H]1CSSC[C@H](NC(=O)[C@@H](N)CCCCNC(=O)CC[C@H](NC(=O)CCCCCCCCCCCCCCCCCCC(=O)O)C(=O)O)C(=O)N[C@@H](CC(N)=O)C(=O)N[C@@H]([C@@H](C)O)C(=O)N[C@@H](C)C(=O)N[C@@H]([C@@H](C)O)C(=O)N1)[C@@H](C)O)C(=O)N1CCC[C@H]1C(=O)N[C@@H](CO)C(=O)N[C@@H](CO)C(=O)N[C@H](C(=O)N[C@@H](CC(N)=O)C(=O)N[C@H](C(=O)NCC(=O)N[C@@H](CO)C(=O)N[C@@H](CC(N)=O)C(=O)N[C@H](C(=O)N1CCC[C@H]1C(N)=O)[C@@H](C)O)C(C)C)[C@@H](C)O, also called compound 12)
3 | 0.146 | 1.6 | 0.238 | 0.196 | {C20 diacid-γGlu-γGlu}-KCNTATCATQRLAEFLRHSSPNFGAIPSSTNVGSNTP-NH2 (disulfide 2-7; SMILES CC[C@H](C)[C@H](NC(=O)[C@H](C)NC(=O)CNC(=O)[C@H](Cc1ccccc1)NC(=O)[C@H](CC(N)=O)NC(=O)[C@@H]1CCCN1C(=O)[C@H](CO)NC(=O)[C@H](CO)NC(=O)[C@H](Cc1c[nH]cn1)NC(=O)[C@H](CCCNC(=N)N)NC(=O)[C@H](CC(C)C)NC(=O)[C@H](Cc1ccccc1)NC(=O)[C@H](CCC(=O)O)NC(=O)[C@H](C)NC(=O)[C@H](CC(C)C)NC(=O)[C@H](CCCNC(=N)N)NC(=O)[C@H](CCC(N)=O)NC(=O)[C@@H](NC(=O)[C@H](C)NC(=O)[C@@H]1CSSC[C@H](NC(=O)[C@H](CCCCN)NC(=O)CC[C@H](NC(=O)CC[C@H](NC(=O)CCCCCCCCCCCCCCCCCCC(=O)O)C(=O)O)C(=O)O)C(=O)N[C@@H](CC(N)=O)C(=O)N[C@@H]([C@@H](C)O)C(=O)N[C@@H](C)C(=O)N[C@@H]([C@@H](C)O)C(=O)N1)[C@@H](C)O)C(=O)N1CCC[C@H]1C(=O)N[C@@H](CO)C(=O)N[C@@H](CO)C(=O)N[C@H](C(=O)N[C@@H](CC(N)=O)C(=O)N[C@H](C(=O)NCC(=O)N[C@@H](CO)C(=O)N[C@@H](CC(N)=O)C(=O)N[C@H](C(=O)N1CCC[C@H]1C(N)=O)[C@@H](C)O)C(C)C)[C@@H](C)O, also called compound 14)

The remaining lines, values behind:

Row | Binder | hAmylin-R funct. EC50 [1] [nM] | Ratio hCT/hAmylin funct. (hCTR EC50 against hAmylin-R EC50) [2] | hCTR funct. EC50 [2] [nM] | IC50 [3] [nM]
4 | {C20 diacid-γGlu}-KCNTATCATQRLAEFLRHSSPNFGAIPSSTNVGSNTP-NH2 (disulfide 2-7; SMILES CC[C@H](C)[C@H](NC(=O)[C@H](C)NC(=O)CNC(=O)[C@H](Cc1ccccc1)NC(=O)[C@H](CC(N)=O)NC(=O)[C@@H]1CCCN1C(=O)[C@H](CO)NC(=O)[C@H](CO)NC(=O)[C@H](Cc1c[nH]cn1)NC(=O)[C@H](CCCNC(=N)N)NC(=O)[C@H](CC(C)C)NC(=O)[C@H](Cc1ccccc1)NC(=O)[C@H](CCC(=O)O)NC(=O)[C@H](C)NC(=O)[C@H](CC(C)C)NC(=O)[C@H](CCCNC(=N)N)NC(=O)[C@H](CCC(N)=O)NC(=O)[C@@H](NC(=O)[C@H](C)NC(=O)[C@@H]1CSSC[C@H](NC(=O)[C@H](CCCCN)NC(=O)CC[C@H](NC(=O)CCCCCCCCCCCCCCCCCCC(=O)O)C(=O)O)C(=O)N[C@@H](CC(N)=O)C(=O)N[C@@H]([C@@H](C)O)C(=O)N[C@@H](C)C(=O)N[C@@H]([C@@H](C)O)C(=O)N1)[C@@H](C)O)C(=O)N1CCC[C@H]1C(=O)N[C@@H](CO)C(=O)N[C@@H](CO)C(=O)N[C@H](C(=O)N[C@@H](CC(N)=O)C(=O)N[C@H](C(=O)NCC(=O)N[C@@H](CO)C(=O)N[C@@H](CC(N)=O)C(=O)N[C@H](C(=O)N1CCC[C@H]1C(N)=O)[C@@H](C)O)C(C)C)[C@@H](C)O, also called compound 8) | 0.082 | 1.1 | 0.087 | 0.072
5 | {C20 diacid-γGlu}-KCNTATCATQRLAEFLRHSSPNFGAIPSSTNVGSETY-NH2 (disulfide 2-7; SMILES CC[C@H](C)[C@H](NC(=O)[C@H](C)NC(=O)CNC(=O)[C@H](Cc1ccccc1)NC(=O)[C@H](CC(N)=O)NC(=O)[C@@H]1CCCN1C(=O)[C@H](CO)NC(=O)[C@H](CO)NC(=O)[C@H](Cc1c[nH]cn1)NC(=O)[C@H](CCCNC(=N)N)NC(=O)[C@H](CC(C)C)NC(=O)[C@H](Cc1ccccc1)NC(=O)[C@H](CCC(=O)O)NC(=O)[C@H](C)NC(=O)[C@H](CC(C)C)NC(=O)[C@H](CCCNC(=N)N)NC(=O)[C@H](CCC(N)=O)NC(=O)[C@@H](NC(=O)[C@H](C)NC(=O)[C@@H]1CSSC[C@H](NC(=O)[C@H](CCCCN)NC(=O)CC[C@H](NC(=O)CCCCCCCCCCCCCCCCCCC(=O)O)C(=O)O)C(=O)N[C@@H](CC(N)=O)C(=O)N[C@@H]([C@@H](C)O)C(=O)N[C@@H](C)C(=O)N[C@@H]([C@@H](C)O)C(=O)N1)[C@@H](C)O)C(=O)N1CCC[C@H]1C(=O)N[C@@H](CO)C(=O)N[C@@H](CO)C(=O)N[C@H](C(=O)N[C@@H](CC(N)=O)C(=O)N[C@H](C(=O)NCC(=O)N[C@@H](CO)C(=O)N[C@@H](CCC(=O)O)C(=O)N[C@H](C(=O)N[C@@H](Cc1ccc(O)cc1)C(N)=O)[C@@H](C)O)C(C)C)[C@@H](C)O, also called compound 22) | 0.27 | 3.8 | 1.03 | 0.794
